In the nanobody polyreactivity screen of Harvey et al. (2022):

Assay: yeast display, Sf9 membrane polyspecificity reagent, FACS + sequencing; frameworks hold sequencing errors
Method in brief: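 Galactose induction of a Saccharomyces cerevisiae BJ5465 synthetic nanobody display library ran 36–48 hours. The cells were then stained for 1 hour at 4 °C with 10% biotinylated, detergent-solubilized Sf9 membrane reagent, pulled down on streptavidin microbeads and FACS-sorted into low and high (top ~1%) gates on expression and reagent-binding fluorescence. Labels for polyreactivity follow the gate of origin.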

Sequence	polyreactivity (PSR sort gate)
QVQLVESGGGLVQAGGSLRLSCAASGSIFGNNVMGWYRQAPGKERELVAAITSGTSTYYADSVKGRFTISRDNAKNTVYLQMNSLKPEDTAVYYCAALWSSRYVVHPQWYDYWGQGTQVTVSS	low polyreactivity
QVQLVESGGGLVQAGGSLRLSCAASGSIFGNYVMGWYRPAPGKERELVAAISWSGGTNYADSVKGRFTISRDNAKNTVYLQMNSLKPEDTAVYYCAALSVWSYYTYYYWGQGTQVTVSS	high polyreactivity
QVQLVESGGGLVQAGGSLRLSCAASGSIFGPNAMGWYRQAPGKERELGAAISWRGGSTYYADSVKGRFTISRDTAKNTVYLQMNSLKPEDTAVYYCNKYLTWAEGLPGYDYWGQGTQVTVSS	high polyreactivity
QVQLVESGGGLVQAGGSLRLSCAASGSIFGPYVKGWYRQAPGTERELVASITSSGGSTYYADTVKGRFTISRDNAKNTVYIQMNSLKPEDTAVYYCNAVRFTPTNSHRYYWGQGTQVTVSS	high polyreactivity
QVQLVESGGGLVQAGGSLRLSCAASGSIFGRNAMGWYRQAPGKERELVAAIRTRGGSTYYADSVKGRFTNSRDIAKNSVYLQMNSLKPEDTAVYYCAAPGGGKEVDYWGQGTQVTVSS	low polyreactivity
QVQLVESGGGLVQAGGSLRLSCAASGSIFGRNAMGWYRQAPGKERELVAAITWSGDSTYYADSVKGRFTISRDNAKNSVYLQMNSLKPEVTAVYYCAVKSYVPYLSYIYSFGYWGQGTQVTVSS	low polyreactivity
QVQLVESGGGLVQAGGSLRLSCAASGSIFGRNAMGWYRQAPGKERELVADIWNGGSTYYADAVKGRFTISRDNAKNTVYLQMNSLKPEDTAVYYCNADADDVGRFGGYIKYDYWGQGTQVTVSS	low polyreactivity
QVQLVESGGGLVQAGGSLRLSCAASGSIFGRNDMGWYRQAAGKERELVAAISKRGGRTYYADSVKGRFTISRDNAKNTVYLQMNSLKPEDTAVYYCAADQPTLAYPGGYSAGMDYWGQGTQVTVSS	high polyreactivity
QVQLVESGGGLVQAGGSLRLSCAASGSIFGRNDMGWYRQAPGKERELVAAISGDTTTNYADSVKGRFTISRDNAKNTVYLQMNSLKPEDTAVYYCAAKYGYRRGTVRGYTRVYYWGQGTQVTVSS	high polyreactivity
QVQLVESGGGLVQAGGSLRLSCAASGSIFGRNVMGWYRQAPGKERELVAAISEGGGRTYYADSVKGRFTISRDNAKNTVYLQMNSLKPEDTAVYYCAAAYFSSGYKYYYWGQGTQVTVSS	high polyreactivity
QVQLVESGGGLVQAGGSLRLSCAASGSIFGRYAMGWYRQAPGKERELVAAISANGGSTYYADSVKGRFTISRDNAKNTVYLQMNSLKPEDTAVYYCAAGSTRGYKLGYWGQGTQVTVSS	high polyreactivity
QVQLVESGGGLVQAGGSLRLSCAASGSIFGSNAMGWYRQALGKERELVAAISDSTGSTYYADSVKGRFTISRDNAKNTVYLQMNSLKPEDTAVYYCDARTYYYRWHIYDYWGQGSQVTVSS	low polyreactivity
QVQLVESGGGLVQAGGSLRLSCAASGSIFGSNGMGWSRQAPGKERELVAAISSGDSTNYADSVKGRFTISRDNAKNTVYLQMNSLKPEDTAVYSCERWGLGDYWGQGTQVTVSS	low polyreactivity
QVQLVESGGGLVQAGGSLRLSCAASGSIFGSYAMGWYRQAPGKERELVAAISYRGGRTYYADSVKGRFTISRDNAKNTVYLQMNSLKPEDTAVYYCNARARNSPPYDYWGQGTQVTVSS	high polyreactivity
QVQLVESGGGLVQAGGSLRLSCAASGSIFGSYAMGWYTQAPGKERELVAAITRAGSTNYADSVKGRFTISRDNAKNTVYLQINSLKPEDTAVFYCAVRPGFGRSLWYGYWGQGTQVTVSS	low polyreactivity
QVQLVESGGGLVQAGGSLRLSCAASGSIFGTNAMGWYRQAPGKERELLAAISLSTGSTYYADSVKGRITISRDYAKNTVYLQMNSLKPEDTAVYYCAVRHRYTRAYWGRDYWGQGTQVTVSS	low polyreactivity

Sequence	polyreactivity (PSR sort gate)
QVQLVESGGGLVQAGGSLRLSCAASGSIFGTNAMGWYRQAPGKERELVAAIDGGSTTYYADSVKGRFTISRDNAKNTVYLQMNSLKPEDTAVYYCAADGTRYLNDEGYAGYEYWGQGTQVTVSS	low polyreactivity
QVQLVESGGGLVQAGGSLRLSCAASGSIFGTNAMGWYRQAPGKERELVAAISFSGGDTYYADSVKGRFTISRDNAKKTVYLQMNRLKPEDTAVYYCAAEVPDTDAYGYWGQGTQVTVSS	low polyreactivity
QVQLVESGGGLVQAGGSLRLSCAASGSIFGTYAMGWYRQALGKERELVASIRFNGRTFYADSVKGRFTISRDNAKNTVYLQMNSLKPEDTAVYYCAAQTWYGFPNYYWGQGTQVTVSS	high polyreactivity
QVQLVESGGGLVQAGGSLRLSCAASGSIFGTYAMGWYRQAPGKEREFVADISGIGTSTYYADSVKGRFTISRDNAKNTVYLQMNSLKPEDTAVYYCAACYPPLRGYYYWGQGTQVTVSS	low polyreactivity
QVQLVESGGGLVQAGGSLRLSCAASGSIFGTYAMGWYRQAPGKERELVARISGGGSTYYADSVKGRFTISRDNAKNTVYLQMNSLKPEDTAVYYCNVRKWAYWSHAIIYNYWGQGTQVTVSS	high polyreactivity
QVQLVESGGGLVQAGGSLRLSCAASGSIFGVNAMGWYRQAPGKERELVAAISSSTGRTYYADSVKGRFTISRDNAKNTVYLQMNSLKPEDTAVYYCAADFTSYRRGWTYGYWGQGTQVTVSS	high polyreactivity
QVQLVESGGGLVQAGGSLRLSCAASGSIFGVNAMGWYRQAPGKERELVASITGGDSTNYADSVKGRFTISRDNAKNTVYLQMNSLKPEDTAGYYCAKDHYYRYEEGDYWGQGTQVTVSS	low polyreactivity
QVQLVESGGGLVQAGGSLRLSCAASGSIFGVYAMGWYRQAPGKERELVAAIDSGSSTDYADSVKGRFTISRDNAKNTVYLQMNSLKPEDTAVYYCYPLDLAPVDYWGQGTQVTVSS	low polyreactivity
QVQLVESGGGLVQAGGSLRLSCAASGSIFGWNAMGWYRQAPGKERELVAAISSGGSTYYADSVKGRFTISRDNAKNTVYLQMNSLKPQDTAVYYCNAFFQYYDYWGQGTQVTVSS	low polyreactivity
QVQLVESGGGLVQAGGSLRLSCAASGSIFGWYAMGWYRQAPGKERELVAAISWDGGDTYYADSVKGRFTISRDNAKNTVYLQMNSLKPEDTAVYYCAAELGYYDYGSYYSYDYWGQGTQVTVSS	high polyreactivity
QVQLVESGGGLVQAGGSLRLSCAASGSIFGWYGMGWYRQAPGKERELVAAINWGGTNTYYADSVKGRFTISRDNAKNTVYLQMISLKPEDTAVYSCNADIPRRPNRHYLYDYWGQATQVTVSS	low polyreactivity
QVQLVESGGGLVQAGGSLRLSCAASGSIFGWYVMGWYRQAPGKERELVAAISSGGSTNYADSVKGRFTISRDNAKNTVYLQMNSLKPEDTAVYYCAKRFRRTPYRNTYKPYDRYYWGQGTQVTVSS	high polyreactivity
QVQLVESGGGLVQAGGSLRLSCAASGSIFGYNAMGWYRQAPGKEREFVAAITSGGSTYYADSVKGRFTISRDNAKNTVYLQMNSLKPEDTAVYYCRRRNVDSTRRYDYWGQGTQVTVSS	high polyreactivity
QVQLVESGGGLVQAGGSLRLSCAASGSIFGYNAMGWYRQAPGKERELVAAINYNGGRTYYADSVKGRFTISRDNAKNTVYLQMNSLKPEDTAVYYCNKVYLRTSGRDYWGQGTQVTVSS	high polyreactivity
QVQLVESGGGLVQAGGSLRLSCAASGSIFGYNAMGWYRQAPGKERELVAAISSSGSSTYADSVKGRFTISRDNAKNTVYLQMNSLKPEDTAVYYCNKTTLLTVEYDYWGQGTQVTVSS	low polyreactivity
QVQLVESGGGLVQAGGSLRLSCAASGSIFGYNAMGWYRQAPGKERELVAAISYSGGRTYYADSVKGRFTISRDNAKHTVYFQKNRLKPEDTAVYYCAKYKVGYVPSGYRYDSWGQGTQVTVSS	high polyreactivity
